Data published in US20250136677A1 (ZOETIS SERVICES, published 2025).

Legend:
[1] = biological target: T1, canine IL-31 protein (Canine_IL31) (canine)
T1 chain: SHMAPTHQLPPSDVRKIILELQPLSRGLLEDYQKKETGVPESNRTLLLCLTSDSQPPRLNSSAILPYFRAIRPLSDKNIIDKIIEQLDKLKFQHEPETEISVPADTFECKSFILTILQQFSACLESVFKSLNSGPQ

[2] = biological target: T1, canine IL-31 protein (Canine_IL31); experiment: SPR (Biacore), IL-31 on chip, 1:1 fit
[3] = biological target: T1, canine IL-31 protein (Canine_IL31); experiment: SPR (Biacore), IL-31 protein as surface capture
[4] = biological target: T2, wildtype feline IL-31 protein (Feline_IL31_wildtype) (feline); experiment: SPR (Biacore), IL-31 protein as surface capture
T2 construct: Full length feline IL-31 with C-terminal His tag, secreted from ExpiCHO cells; also called fIL-31
T2 chain: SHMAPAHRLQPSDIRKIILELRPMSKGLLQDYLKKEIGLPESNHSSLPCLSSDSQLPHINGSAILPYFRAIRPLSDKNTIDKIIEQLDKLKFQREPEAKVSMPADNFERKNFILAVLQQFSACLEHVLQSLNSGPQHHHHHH
Procedure: (§1) The affinity with which candidate mAbs bind canine and feline IL-31 was determined using surface plasmon resonance (SPR) on a Biacore system (Biocore Life Sciences (GE Healthcare), Uppsala, Sweden). To avoid affinity differences associated with differential surface preparation that can occur when immobilizing antibodies to surfaces; a strategy was employed where IL-31 was directly conjugated to the surface. Immobilization was obtained by amine coupling 5 μg/mL IL-31 using N-hydroxysuccinimide (NHS)/1-Ethyl-3-(3-dimethylaminopropyl) carbodiimide (EDC) chemistry. Chips were quenched with ethanolamine and the affinity with which all candidate mAbs bound to the immobilized IL-31 was evaluated. All curves were fit to a 1:1 model. […] Results for affinity measurements are described herein.
(§2) Table 1 below describes the results for biacore analysis using multiple species of IL-31 protein as a surface capture.

[5] = biological target: T3, mutant feline IL-31 11E12 protein (Feline_IL31_11E12_mutant) (feline); experiment: SPR (Biacore), IL-31 protein as surface capture
T3 construct: also called feline 11E12 mutant; 11E12 IL-31 mutant
T3 chain: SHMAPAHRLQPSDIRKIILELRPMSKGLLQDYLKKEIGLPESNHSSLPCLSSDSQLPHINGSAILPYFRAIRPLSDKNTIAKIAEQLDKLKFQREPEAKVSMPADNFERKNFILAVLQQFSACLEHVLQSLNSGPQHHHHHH
Procedure: as §1, §2

[6] = biological target: T4, equine IL-31 protein (Equine_IL31) (equine); experiment: SPR (Biacore), IL-31 protein as surface capture
T4 construct: Recombinant equine IL-31
T4 chain: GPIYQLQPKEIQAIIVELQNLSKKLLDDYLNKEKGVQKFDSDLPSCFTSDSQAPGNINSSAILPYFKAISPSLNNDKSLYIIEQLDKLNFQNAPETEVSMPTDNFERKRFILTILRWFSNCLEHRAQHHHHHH
Procedure: as §1, §2

human IL-31 = biological target: T5, human IL-31 (human, UniProt Q6EBC2 24-164); experiment: SPR (Biacore), IL-31 surface, single antibody concentration
T5 sequence: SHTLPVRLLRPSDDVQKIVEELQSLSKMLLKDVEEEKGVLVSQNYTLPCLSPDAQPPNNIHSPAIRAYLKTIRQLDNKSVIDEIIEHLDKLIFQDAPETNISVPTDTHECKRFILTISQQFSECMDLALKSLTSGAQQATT

B1: mouse anti IL-31 antibody 15H05 (antibody, mouse IgG1, kappa)
heavy: QVQLQQSAAELARPGASVKMSCKTSGYTFTSYTIHWIKQRPGQGLEWIGNINPTSGYTENNQRFKDKTTLTVDRSSNTAYLQLHSLTSEDSAVYFCARWGFKYDGEWSFDVWGAGTTVTVSSKTTPPSVYPLAPGSAAQTNSMVTLGCLVKGYFPEPVTVTWNSGSLSSGVHTFPAVLESDLYTLSSSVTVPSSPRPSETVTCNVAHPASSTKVDKKIVPRDCGCKPCICTVPEVSSVFIFPPKPKDVLTITLTPKVTCVVVDISKDDPEVQFSWFVDDVEVHTAQTQPREEQFNSTFRSVSELPIMHQDWLNGKEFKCRVNSAAFPAPIEKTISKTKGRPKAPQVYTIPPPKEQMAKDKVSLTCMITDFFPEDITVEWQWNGQPAENYKNTQPIMNTNGSYFVYSKLNVQKSNWEAGNTFTCSVLHEGLHNHHTEKSLSHSPGK
light: DIQMNQSPSSLSASLGDTITVTCRASQGISIWLSWYQQKPGNIPKVLINKASNLHIGVPPRFSGSGSGTHFTLTITSLQPEDIATYYCLQSQTYPLTFGGGTKLEINADAAPTVSIFPPSSEQLTSGGASVVCFLNNFYPKDINVKWKIDGSERQNGVLNSWTDQDSKDSTYSMSSTLTLTKDEYERHNSYTCEATHKTSTSPIVKSFNRNEC
notes: Mouse hybridoma antibody, IgG1 kappa; also called Mu-15H05; MU-15H05
- IC50, inhibition of canine IL-31-induced STAT3 phosphorylation, feline FCWF4 cells [1]: 25.7 µg/mL
- koff [2]: 6.56e-07 s⁻¹
- kon [2]: 135000 M⁻¹ s⁻¹
- Kd [3]: 0.00191 nM
- Kd [4]: 0.306 nM
- Kd [5]: 11.5 nM
- Kd [6]: 0.306 nM
- binding result (human IL-31): no binding
